According to publication PMC11966256:

Tests used:
[1] = target: Cy5-HsLARP6(73-183)G74C La domain (Homo sapiens, UniProt Q9BRS8, G74C); assay: MST
[2] = target: HsLARP6(73-183) La domain (Homo sapiens, UniProt Q9BRS8); assay: analytical SEC
[3] = target: HsLARP6(84-183) La domain (Homo sapiens, UniProt Q9BRS8); assay: analytical SEC

Question: What does the source list for GGCACAAGGAGUCUGCAUGUCUAAGUGCUAGACAUGCUCAGCUUUGUG (structured_RNA) [5'SL RNA (a2(I)), 48 nt]?
Answer: Kd [1]: 4.87 ± 0.15 nM; binding result [2]: binds; binding result [3]: binds
